Data as given in patent US5536822A, “γ-phosphate linked adenosine 5' triphosphate sepharose” (University of Virginia Alumni Patents Foundation, priority 1994, dated 1996).

Substrate: Nc1ncnc2c1ncn2[C@@H]1O[C@H](COP(=O)(O)OP(=O)(O)OP(=O)(O)O)[C@@H](O)[C@H]1O
Experiment: Inhibition constant of the ATP derivative / Km for ATP, p42^mapk assay
Assay type: biochemical
Details: other: p42^mapk; pH 7.4
Excerpt: [γ-^32 P] ATP was synthesized according to the procedure set forth in Johnson et al., Advances in Cyclic Nucleotide Research, 10:135-167 (1979). The catalytic subunit of cyclic-AMP-dependent protein kinase was purchased from Promega. p60^c-arc was obtained from the Department of Microbiology, University of Virginia. Recombinant p42^mapk was purified as described in Haystead et al., (1992) FEBS Lett., 306:17-22. STE7 antibody was obtained from the University of Vancouver, Canada.
The 42-kDa MAP kinase (p42^mapk) and MAPKK were assayed as described previously (Haystead et al. (1992) FEBS. Lett., 306:17-22). The cyclic-A kinase assays (30 μl) included 1 μg cyclic-A kinase, 2 mM Kemptide, 50 mM Hepes, pH 7.4, 1 mM dithiothreitol, 200 μM ATP, 5 mM MgCl2. […]
In order to assess the effectiveness of adenosine 5'-(γ-4-aminophenyl)triphosphate as an affinity ligand for protein kinases, the inhibition constants (Ki) of the derivative were determined for four different protein kinases, namely, p42^mapk, cyclic-A kinase, MAPKK and p60^c-arc (Table 1). […] This also facilitated comparisons for the relative binding constants determined with other ATP analogs (Flockhart et al. (1984) Eur. J. Biochem., 140:289-295; Hoppe et al. (1972) Eur. J. Biochem., 80:369-372; Taylor et al. (1990) Peptides and Protein Phosphorylation (Kemp et al.) pp 2-32, CRC Press).

B1: p42^mapk (Mus musculus) (protein)
chain: MAAAAAAGPEMVRGQVFDVGPRYTNLSYIGEGAYGMVCSAYDNLNKVRVAIKKISPFEHQTYCQRTLREIKILLRFRHENIIGINDIIRAPTIEQMKDVYIVQDLMETDLYKLLKTQHLSNDHICYFLYQILRGLKYIHSANVLHRDLKPSNLLLNTTCDLKICDFGLARVADPDHDHTGFLTEYVATRWYRAPEIMLNSKGYTKSIDIWSVGCILAEMLSNRPIFPGKHYLDQLNHILGILGSPSQEDLNCIINLKARNYLLSLPHKNKVPWNRLFPNADSKALDLLDKMLTFNPHKRIEVEQALAHPYLEQYYDPSDEPIAEAPFKFDMELDDLPKEKLKELIFEETARFQPGYRS
notes: made in house
- Km: 7.5 ± 0.71 µM
